Values of other authors, collected in publication PMC7854602.

Experiments:
Cdc42 (activated) = Cdc42 (activated) (UniProt P60953)
Cdc42 (inactive) = Cdc42 (inactive) (UniProt P60953)
RhoA (inactive) = RhoA (inactive) (UniProt P61586)
RhoA (activated) = RhoA (activated) (UniProt P61586)

Substance	Kd (Cdc42 (activated))	Kd (Cdc42 (inactive))	Kd (RhoA (inactive))	Kd (RhoA (activated))
Pak3 CBD 60-113 (from UniProt O75914)	1.8 µM	149 µM		
Rhotekin RBD 8-81 (from UniProt Q8C6B2)			47 µM	3.9 µM
